1 substance from patent US20100136006A1 can be followed below.

Assay [1] addresses CSF1 (colony stimulating factor 1 ligand) (UniProt P09603). The assay can be described thus: cell-based or functional assay.
The target in assay [2] is IL34 (interleukin 34 ligand) (UniProt Q6ZMJ4). The assay can be described thus: cell-based or functional assay.
Chain of UniProt Q6ZMJ4 (Q6ZMJ4 21-242 limits assumed): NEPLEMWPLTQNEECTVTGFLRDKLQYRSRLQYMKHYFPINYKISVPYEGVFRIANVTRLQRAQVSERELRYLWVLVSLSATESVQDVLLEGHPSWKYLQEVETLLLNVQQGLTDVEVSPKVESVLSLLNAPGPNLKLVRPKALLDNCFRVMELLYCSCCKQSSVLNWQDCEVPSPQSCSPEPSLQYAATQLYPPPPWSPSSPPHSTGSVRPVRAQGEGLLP

Chain of UniProt P09603 (P09603 33-190 limits assumed): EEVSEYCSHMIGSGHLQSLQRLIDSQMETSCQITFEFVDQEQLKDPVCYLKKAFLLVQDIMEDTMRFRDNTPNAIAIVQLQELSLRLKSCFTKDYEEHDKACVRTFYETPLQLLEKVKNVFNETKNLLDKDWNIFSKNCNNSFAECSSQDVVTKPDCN

Regarding hCSF1R-ECD.506-Fc (Fc fusion), in assay [1], the IC50 for inhibition of CSF1-induced monocyte proliferation was found to be 1.5 nM. The IC50 for inhibition of IL34-induced monocyte proliferation in assay [2] was 0.27 nM.
